Results reported in article PMC10397247.

Key:
P4SC2 [1] = target: T1, P4SC2; assay: two-hybrid library CCmax; conditions: mean of both orientations;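 further: natural log of median RNA to DNA barcode read ratio; higher means stronger binding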
T1 chain: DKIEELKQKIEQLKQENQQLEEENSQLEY

P4SC2 [2] = target: T1, P4SC2; assay: two-hybrid library CCNG1;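 further: natural log of median RNA to DNA barcode read ratio; higher means stronger binding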
4H1103-AA = target: T2, 4H1103-AA; assay: two-hybrid library CCmax; conditions: mean of both orientations;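 further: natural log of median RNA to DNA barcode read ratio; higher means stronger binding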
T2 chain: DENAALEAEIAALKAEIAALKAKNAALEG

4H2614-AA = target: T3, 4H2614-AA; assay: two-hybrid library CCmax; conditions: mean of both orientations;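 further: natural log of median RNA to DNA barcode read ratio; higher means stronger binding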
T3 chain: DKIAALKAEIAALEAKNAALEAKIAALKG

4H2935-AA = target: T4, 4H2935-AA; assay: two-hybrid library CCmax; conditions: mean of both orientations
T4 chain: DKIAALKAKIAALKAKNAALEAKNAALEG

4H4033-AA = target: T5, 4H4033-AA; assay: two-hybrid library CCmax; conditions: mean of both orientations
T5 chain: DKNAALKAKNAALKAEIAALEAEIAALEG

4H1198-AA = target: T6, 4H1198-AA; assay: two-hybrid library CCmax; conditions: mean of both orientations
T6 chain: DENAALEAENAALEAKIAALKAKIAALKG

4H481-AA = target: T7, 4H481-AA; assay: two-hybrid library CCmax; conditions: mean of both orientations
T7 chain: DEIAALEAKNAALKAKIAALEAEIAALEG

4H2726-AA = target: T8, 4H2726-AA; assay: two-hybrid library CCmax; conditions: mean of both orientations
T8 chain: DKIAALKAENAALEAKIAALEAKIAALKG

4H3605-AA = target: T9, 4H3605-AA; assay: two-hybrid library CCmax; conditions: mean of both orientations
T9 chain: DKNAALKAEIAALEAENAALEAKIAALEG

4H3625-AA = target: T10, 4H3625-AA; assay: two-hybrid library CCmax; conditions: mean of both orientations
T10 chain: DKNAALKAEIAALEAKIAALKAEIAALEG

4H1405-AA = target: T11, 4H1405-AA; assay: two-hybrid library CCmax; conditions: mean of both orientations
T11 chain: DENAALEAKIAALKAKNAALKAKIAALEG

4H3664-AA = target: T12, 4H3664-AA; assay: two-hybrid library CCmax; conditions: mean of both orientations
T12 chain: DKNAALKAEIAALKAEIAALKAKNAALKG

4H3922-AA = target: T13, 4H3922-AA; assay: two-hybrid library CCmax; conditions: mean of both orientations
T13 chain: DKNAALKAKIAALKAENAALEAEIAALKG

4H2536-AA = target: T14, 4H2536-AA; assay: two-hybrid library CCmax; conditions: mean of both orientations
T14 chain: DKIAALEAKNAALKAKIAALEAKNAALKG

4H2238-AA = target: T15, 4H2238-AA; assay: two-hybrid library CCmax; conditions: mean of both orientations
T15 chain: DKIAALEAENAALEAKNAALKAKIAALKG

4H1350-AA = target: T16, 4H1350-AA; assay: two-hybrid library CCmax; conditions: mean of both orientations
T16 chain: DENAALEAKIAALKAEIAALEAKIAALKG

4H55-AA = target: T17, 4H55-AA; assay: two-hybrid library CCmax; conditions: mean of both orientations
T17 chain: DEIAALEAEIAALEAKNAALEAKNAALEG

4H2608-AA = target: T18, 4H2608-AA; assay: two-hybrid library CCmax; conditions: mean of both orientations
T18 chain: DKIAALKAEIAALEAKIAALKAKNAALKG

4H1017-AA = target: T19, 4H1017-AA; assay: two-hybrid library CCmax
T19 chain: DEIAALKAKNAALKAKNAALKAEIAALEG

4H2513-AA = target: T20, 4H2513-AA; assay: two-hybrid library CCmax; conditions: mean of both orientations
T20 chain: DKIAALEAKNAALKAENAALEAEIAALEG

4H2211-AA = target: T21, 4H2211-AA; assay: two-hybrid library CCmax; conditions: mean of both orientations
T21 chain: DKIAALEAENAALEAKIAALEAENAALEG

4H369-AA = target: T22, 4H369-AA; assay: two-hybrid library CCmax; conditions: mean of both orientations
T22 chain: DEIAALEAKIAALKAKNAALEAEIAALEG

4H662-AA = target: T23, 4H662-AA; assay: two-hybrid library CCmax; conditions: mean of both orientations
T23 chain: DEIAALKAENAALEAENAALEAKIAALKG

4H327-AA = target: T24, 4H327-AA; assay: two-hybrid library CCmax; conditions: mean of both orientations
T24 chain: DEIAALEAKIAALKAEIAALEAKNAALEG

4H1082-AA = target: T25, 4H1082-AA; assay: two-hybrid library CCmax
T25 chain: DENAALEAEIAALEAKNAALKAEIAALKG

4H3354-bA = target: T26, 4H3354-bA; assay: two-hybrid library CCNG1
T26 chain: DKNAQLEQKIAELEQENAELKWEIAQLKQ

4H338-bA = target: T27, 4H338-bA; assay: two-hybrid library CCNG1
T27 chain: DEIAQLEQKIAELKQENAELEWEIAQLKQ

4H3855-bA = target: T28, 4H3855-bA; assay: two-hybrid library CCNG1
T28 chain: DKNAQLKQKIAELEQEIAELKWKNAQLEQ

4H717-bA = target: T29, 4H717-bA; assay: two-hybrid library CCNG1
T29 chain: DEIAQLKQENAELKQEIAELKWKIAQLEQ

4H918-bA = target: T30, 4H918-bA; assay: two-hybrid library CCNG1
T30 chain: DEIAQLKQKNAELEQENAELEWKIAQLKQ

4H607-bA = target: T31, 4H607-bA; assay: two-hybrid library CCNG1
T31 chain: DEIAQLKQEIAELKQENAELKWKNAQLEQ

4H2576-bA = target: T32, 4H2576-bA; assay: two-hybrid library CCNG1
T32 chain: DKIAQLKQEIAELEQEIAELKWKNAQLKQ

4H2667-bA = target: T33, 4H2667-bA; assay: two-hybrid library CCNG1
T33 chain: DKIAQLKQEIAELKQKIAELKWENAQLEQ

4H2729-bA = target: T34, 4H2729-bA; assay: two-hybrid library CCNG1
T34 chain: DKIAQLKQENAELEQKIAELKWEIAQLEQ

4H1845-bA = target: T35, 4H1845-bA; assay: two-hybrid library CCNG1
T35 chain: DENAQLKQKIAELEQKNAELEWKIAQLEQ

4H1257-bA = target: T36, 4H1257-bA; assay: two-hybrid library CCNG1
T36 chain: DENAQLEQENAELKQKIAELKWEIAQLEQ

4H3427-bA = target: T37, 4H3427-bA; assay: two-hybrid library CCNG1
T37 chain: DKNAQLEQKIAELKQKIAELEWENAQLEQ

4H331-bA = target: T38, 4H331-bA; assay: two-hybrid library CCNG1
T38 chain: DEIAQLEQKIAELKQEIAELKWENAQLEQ

4H953-bA = target: T39, 4H953-bA; assay: two-hybrid library CCNG1
T39 chain: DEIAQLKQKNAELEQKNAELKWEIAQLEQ

4H1828-bA = target: T40, 4H1828-bA; assay: two-hybrid library CCNG1
T40 chain: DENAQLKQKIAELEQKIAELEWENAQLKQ

4H2618-bA = target: T41, 4H2618-bA; assay: two-hybrid library CCNG1
T41 chain: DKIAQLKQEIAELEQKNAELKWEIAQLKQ

4H3782-bA = target: T42, 4H3782-bA; assay: two-hybrid library CCNG1
T42 chain: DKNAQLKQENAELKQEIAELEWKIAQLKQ

4H568-bA = target: T43, 4H568-bA; assay: two-hybrid library CCNG1
T43 chain: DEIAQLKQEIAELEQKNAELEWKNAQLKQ

4H454-bA = target: T44, 4H454-bA; assay: two-hybrid library CCNG1
T44 chain: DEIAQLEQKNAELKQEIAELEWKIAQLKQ

4H687-bA = target: T45, 4H687-bA; assay: two-hybrid library CCNG1
T45 chain: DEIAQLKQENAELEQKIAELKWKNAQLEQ

4H72-bA = target: T46, 4H72-bA; assay: two-hybrid library CCNG1
T46 chain: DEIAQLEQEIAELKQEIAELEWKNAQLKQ

4H754-bA = target: T47, 4H754-bA; assay: two-hybrid library CCNG1
T47 chain: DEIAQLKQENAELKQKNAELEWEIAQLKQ

4H908-bA = target: T48, 4H908-bA; assay: two-hybrid library CCNG1
T48 chain: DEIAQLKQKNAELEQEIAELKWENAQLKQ

4H953-bN = target: T49, 4H953-bN; assay: two-hybrid library CCNG1
T49 chain: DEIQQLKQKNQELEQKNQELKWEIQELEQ

O2-bA = target: T50, O2-bA; assay: two-hybrid library CCNG1
T50 chain: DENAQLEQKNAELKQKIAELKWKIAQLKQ

4H3112-bA = target: T51, 4H3112-bA; assay: two-hybrid library CCNG1
T51 chain: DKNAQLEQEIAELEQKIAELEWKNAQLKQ

4H1446-bA = target: T52, 4H1446-bA; assay: two-hybrid library CCNG1
T52 chain: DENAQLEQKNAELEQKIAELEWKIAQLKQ

4H4001-bA = target: T53, 4H4001-bA; assay: two-hybrid library CCNG1
T53 chain: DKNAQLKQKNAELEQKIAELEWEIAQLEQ

4H883-bA = target: T54, 4H883-bA; assay: two-hybrid library CCNG1
T54 chain: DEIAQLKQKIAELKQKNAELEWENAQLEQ

4H3185-bA = target: T55, 4H3185-bA; assay: two-hybrid library CCNG1
T55 chain: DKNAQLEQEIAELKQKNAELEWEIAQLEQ

4H2442-bA = target: T56, 4H2442-bA; assay: two-hybrid library CCNG1
T56 chain: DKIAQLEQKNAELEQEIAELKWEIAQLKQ

4H797-bA = target: T57, 4H797-bA; assay: two-hybrid library CCNG1
T57 chain: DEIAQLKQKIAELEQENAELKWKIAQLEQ

4H967-bA = target: T58, 4H967-bA; assay: two-hybrid library CCNG1
T58 chain: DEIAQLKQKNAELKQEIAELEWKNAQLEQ

Core_INII-es_KEEK = target: T59, Core_INII-es_KEEK; assay: two-hybrid library CCmax; conditions: mean of both orientations
T59 chain: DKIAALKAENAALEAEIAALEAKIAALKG

Core_IIIN-es_KKKK = target: T60, Core_IIIN-es_KKKK; assay: two-hybrid library CCmax; conditions: mean of both orientations
T60 chain: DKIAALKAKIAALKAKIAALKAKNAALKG

## DEIQQLEEEIRQLEQKNSQLKEKNQQLKY [P3SC2]
P4SC2 [1]
  interaction score: 0.206
P4SC2 [2]
  interaction score: 1.12

## DEIAALKAKNAALKAKNAALKAEIAALEG [4H1017-AA]
4H1103-AA
  interaction score: -1.61
4H2614-AA
  interaction score: 0.0732
4H2935-AA
  interaction score: -3.83
4H4033-AA
  interaction score: -2.3
4H1198-AA
  interaction score: 0.565
4H481-AA
  interaction score: -1.63
4H2726-AA
  interaction score: 0.98
4H3605-AA
  interaction score: 0.203
4H3625-AA
  interaction score: -1.94
4H1405-AA
  interaction score: -1.79
4H3664-AA
  interaction score: -1.53
4H3922-AA
  interaction score: -0.887
4H2536-AA
  interaction score: -1.48
4H2238-AA
  interaction score: 1.64
4H1350-AA
  interaction score: -1.39
4H55-AA
  interaction score: -1.6
4H2608-AA
  interaction score: -1.64
4H1017-AA
  interaction score: -1.79
4H2513-AA
  interaction score: -1.22
4H2211-AA
  interaction score: -1.35
4H369-AA
  interaction score: -1.44
4H662-AA
  interaction score: 2.48
4H327-AA
  interaction score: -1.46
4H1082-AA
  interaction score: -2.19

## DENAQLEQENAELKQKIAELKWEIAQLEQ [4H1257-bA]
4H3354-bA
  interaction score: -0.884
4H338-bA
  interaction score: -1.24
4H3855-bA
  interaction score: -0.705
4H717-bA
  interaction score: -0.0683
4H918-bA
  interaction score: -0.431
4H607-bA
  interaction score: -1.24
4H2576-bA
  interaction score: 0.908
4H2667-bA
  interaction score: -0.847
4H2729-bA
  interaction score: -0.154
4H1845-bA
  interaction score: -0.799
4H1257-bA
  interaction score: -0.0608
4H3427-bA
  interaction score: -0.869
4H331-bA
  interaction score: -0.712
4H953-bA
  interaction score: -1.53
4H1828-bA
  interaction score: -0.782
4H2618-bA
  interaction score: -0.882
4H3782-bA
  interaction score: 2.01
4H568-bA
  interaction score: -1.75
4H454-bA
  interaction score: 1.77
4H687-bA
  interaction score: -0.935
4H72-bA
  interaction score: -1.15
4H754-bA
  interaction score: -1.15
4H908-bA
  interaction score: -1.38
4H953-bN
  interaction score: -2.6
O2-bA
  interaction score: -1.33
4H3112-bA
  interaction score: -0.693
4H1446-bA
  interaction score: -0.55
4H4001-bA
  interaction score: -0.102
4H883-bA
  interaction score: -1.18
4H3185-bA
  interaction score: -1.37
4H2442-bA
  interaction score: -0.983
4H797-bA
  interaction score: -0.933
4H967-bA
  interaction score: -1.12

## DEIAALEAKNAALKAKIAALKAEIAALEG [Core_INII-es_EKKE]
Core_INII-es_KEEK
  interaction score: 2.32

## DEIAALEAEIAALEAEIAALEAENAALEG [Core_IIIN-es_EEEE]
Core_IIIN-es_KKKK
  interaction score: 1.39
